This assay deals with insulin receptor on differentiated 3T3-L1 adipocytes (mouse (murine 3T3-L1 cell line)) (UniProt P15208). The assay can be described thus: cell-based or functional assay.
Sequence of insulin receptor on differentiated 3T3-L1 adipocytes (mouse (murine 3T3-L1 cell line)) (P15208 28-1372): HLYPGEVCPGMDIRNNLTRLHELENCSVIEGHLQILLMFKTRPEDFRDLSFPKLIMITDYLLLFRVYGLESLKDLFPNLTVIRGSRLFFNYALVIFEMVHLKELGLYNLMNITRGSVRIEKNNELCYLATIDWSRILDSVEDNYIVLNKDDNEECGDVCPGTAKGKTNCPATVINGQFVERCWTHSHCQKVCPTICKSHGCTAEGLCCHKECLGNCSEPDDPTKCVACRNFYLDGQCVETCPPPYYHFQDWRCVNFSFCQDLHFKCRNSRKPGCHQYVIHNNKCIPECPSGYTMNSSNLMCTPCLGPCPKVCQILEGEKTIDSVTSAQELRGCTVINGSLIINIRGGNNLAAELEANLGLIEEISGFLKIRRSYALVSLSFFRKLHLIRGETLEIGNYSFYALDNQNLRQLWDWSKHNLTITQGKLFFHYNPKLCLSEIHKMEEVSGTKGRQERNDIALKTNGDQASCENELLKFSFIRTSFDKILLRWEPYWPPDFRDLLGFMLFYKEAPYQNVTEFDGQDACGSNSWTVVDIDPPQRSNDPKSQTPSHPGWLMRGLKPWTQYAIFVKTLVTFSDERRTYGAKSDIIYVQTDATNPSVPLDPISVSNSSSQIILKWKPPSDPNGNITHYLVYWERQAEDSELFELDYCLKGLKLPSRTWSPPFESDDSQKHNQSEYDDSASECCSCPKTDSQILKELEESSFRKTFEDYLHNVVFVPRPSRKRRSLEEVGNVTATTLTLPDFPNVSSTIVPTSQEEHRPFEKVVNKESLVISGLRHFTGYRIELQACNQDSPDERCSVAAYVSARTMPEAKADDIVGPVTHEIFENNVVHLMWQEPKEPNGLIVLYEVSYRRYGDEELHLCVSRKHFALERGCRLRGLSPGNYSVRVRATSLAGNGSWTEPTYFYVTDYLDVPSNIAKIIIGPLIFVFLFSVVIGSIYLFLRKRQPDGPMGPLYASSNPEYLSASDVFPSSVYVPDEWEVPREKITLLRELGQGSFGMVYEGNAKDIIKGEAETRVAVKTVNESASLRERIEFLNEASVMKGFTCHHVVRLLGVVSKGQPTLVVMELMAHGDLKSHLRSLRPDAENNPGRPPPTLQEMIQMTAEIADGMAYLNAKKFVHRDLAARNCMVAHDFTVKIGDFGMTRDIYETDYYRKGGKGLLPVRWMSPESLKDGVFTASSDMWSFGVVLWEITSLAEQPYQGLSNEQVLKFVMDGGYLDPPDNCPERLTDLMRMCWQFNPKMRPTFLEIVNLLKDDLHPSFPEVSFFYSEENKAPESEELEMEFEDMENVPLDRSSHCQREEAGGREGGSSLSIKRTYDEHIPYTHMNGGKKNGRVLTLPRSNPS

B1: SCI-57 without RGS-His tag (single-chain insulin analog secreted by L. lactis NZ9000(pNZPnisA:uspSCI-57)) (ligand)
chain: FVNQHLCGSDLVEALYLVCGERGFFYTDPTGGGPRRGIVEQCCHSICSLYQLENYCN
Take B1: the Insulin activity (no tag), p-Akt on 3T3-L1 adipocytes; culture: M17 only (nM commercial insulin (equivalent)) was < 1; the Insulin activity (no tag), p-Akt on 3T3-L1 adipocytes; culture: M17 with 50 mM sodium phosphates (nM commercial insulin (equivalent)) is < 1; the Insulin activity (no tag), p-Akt on 3T3-L1 adipocytes; culture: M17 with NaOH addition at 1.5 hr (nM commercial insulin (equivalent)) is > 1.

B2: RGS-His-tagged SCI-57 (single-chain insulin analog secreted by L. lactis NZ9000(pNZPnisA:uspSCI-57his), usp45 signal peptide cleaved) (ligand)
chain: FVNQHLCGSDLVEALYLVCGERGFFYTDPTGGGPRRGIVEQCCHSICSLYQLENYCNRGSHHHHHH
As for B2, the Insulin activity (with RGS-His tag), p-Akt on 3T3-L1 adipocytes; culture: M17 with NaOH addition at 0.5 hr (nM commercial insulin (equivalent)) worked out at 1; the Insulin activity (with RGS-His tag), p-Akt on 3T3-L1 adipocytes; culture: M17 with NaOH addition at 1.5 hr (nM commercial insulin (equivalent)) turned out to be 1; the Insulin activity (with RGS-His tag), p-Akt on 3T3-L1 adipocytes; culture: M17 with NaOH addition at 2.5 hr (nM commercial insulin (equivalent)) was < 1; the Insulin activity (with RGS-His tag), p-Akt on 3T3-L1 adipocytes; culture: M17 with NaOH addition every hour (nM commercial insulin (equivalent)) came out at 1. This molecule yielded a p-Akt(Ser473) Western blot on differentiated 3T3-L1 adipocytes, quantified from three independent experiments; supernatant of induced culture treated with NaOH (scale: nM commercial insulin) of 1.

The record behind these values is patent US20140242111A1.
